Where a chain is given by its changes, count along the chain named. In names and notes the source's numbering stands. One block for each binder: values may come before it.
Legend:
[1] = target: T1, human CD73 expressed at the cell surface (human, UniProt P21589 27-549); experiment: cell-based or functional assay
T1 sequence: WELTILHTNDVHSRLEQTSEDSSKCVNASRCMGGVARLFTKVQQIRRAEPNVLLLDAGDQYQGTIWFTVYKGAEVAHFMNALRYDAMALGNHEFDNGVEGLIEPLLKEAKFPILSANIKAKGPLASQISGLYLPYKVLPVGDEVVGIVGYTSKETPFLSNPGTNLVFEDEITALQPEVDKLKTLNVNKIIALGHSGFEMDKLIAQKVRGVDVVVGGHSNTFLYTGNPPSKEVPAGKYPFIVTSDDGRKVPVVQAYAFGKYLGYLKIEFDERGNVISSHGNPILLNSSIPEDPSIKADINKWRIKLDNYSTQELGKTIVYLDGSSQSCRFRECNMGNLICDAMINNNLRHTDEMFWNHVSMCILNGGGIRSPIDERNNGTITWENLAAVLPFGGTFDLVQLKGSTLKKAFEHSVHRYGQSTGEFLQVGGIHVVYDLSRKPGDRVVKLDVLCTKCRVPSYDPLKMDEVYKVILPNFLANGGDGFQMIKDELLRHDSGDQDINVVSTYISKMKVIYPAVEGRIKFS

[2] = target: T2, recombinant human CD73-His extracellular domain protein (soluble dimer) (human, UniProt P21589 27-547); experiment: cell-based or functional assay
T2 sequence: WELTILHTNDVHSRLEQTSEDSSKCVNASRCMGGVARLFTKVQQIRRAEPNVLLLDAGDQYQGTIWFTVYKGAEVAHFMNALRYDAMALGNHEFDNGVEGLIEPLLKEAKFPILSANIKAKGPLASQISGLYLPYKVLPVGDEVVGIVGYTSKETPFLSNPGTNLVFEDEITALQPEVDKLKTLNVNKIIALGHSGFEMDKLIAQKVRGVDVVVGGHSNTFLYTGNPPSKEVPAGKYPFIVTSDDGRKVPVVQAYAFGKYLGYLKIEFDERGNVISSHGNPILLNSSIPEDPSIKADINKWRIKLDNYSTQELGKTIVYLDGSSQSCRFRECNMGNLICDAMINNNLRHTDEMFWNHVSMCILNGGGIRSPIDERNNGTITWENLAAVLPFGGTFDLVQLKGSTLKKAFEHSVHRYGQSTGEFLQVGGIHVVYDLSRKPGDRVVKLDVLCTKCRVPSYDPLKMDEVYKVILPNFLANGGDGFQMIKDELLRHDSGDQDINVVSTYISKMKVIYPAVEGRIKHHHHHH

[3] = target: T3, cynomolgus CD73 expressed on a recombinant host cell line (cynomolgus); experiment: flow cytometry titration on a cynomolgus-CD73-expressing recombinant host cell line, median of fluorescence
T3 construct: whole, on cells; also called cynoCD73

[4] = target: T1, human CD73 expressed at the cell surface; experiment: flow cytometry on MDA-MB-231 cells pre-incubated with 200 µM APCP
Description: (§1) MDA-MB-231 cells are available from ATCC (reference HTB-26). 10⁵ cells resuspended in PBS/0.2% BSA/0.02% NaN3 (named “staining buffer”) are distributed into round bottom 96W-microplates. Dose-range of anti-CD73 antibodies was added to the plates and cells are incubated for 45 min at 4° C. Cells were washed three times in staining buffer by spinning plates at 400 g for 3 min at 4° C. PE-coupled goat anti-mouse or goat anti-human IgG Fc fragment secondary antibodies (Beckman Coulter) diluted in staining buffer were added to the cells and plates are incubated for 30 additional minutes at 4° C. Cells were washed three times as described above and analyzed on an Accury C6 flow cytometer equipped with an HTFC plate reader.
(§2) Cells were pre-incubated at 37° C. for 30 minutes in the presence or not of 200 μM adenosine 5′-(α,β-methylene)diphosphate (APCP), followed by addition of antibodies. APCP is an analog of ADP and binds irreversibly to the active site of CD73. When bound by APCP, CD73 changes conformation from an “open” conformation to a “closed” conformation. mAbs 11E1, 8C7, 3C12 and 6E1 bound MDA-MB-231 cells with good affinity both in the presence and absence of APCP. In the presence of APCP, the EC50 was similar to that observed in the absence of APCP. The plateau for maximal binding of 11E1, 8C7, 3C12 and 6E1 was higher in the absence of APCP than in the presence of APCP, while the inverse was true for AD2.

[5] = target: T1, human CD73 expressed at the cell surface; experiment: cell-based or functional assay; remark: listed apart in the source
[6] = target: T4, mouse CD73 expressed on a recombinant host cell line (mouse, UniProt Q61503 29-551); experiment: flow cytometry titration on a mouse-CD73-expressing recombinant host cell line, median of fluorescence
T4 construct: whole, on cells; also called moCD73
T4 sequence (looked up): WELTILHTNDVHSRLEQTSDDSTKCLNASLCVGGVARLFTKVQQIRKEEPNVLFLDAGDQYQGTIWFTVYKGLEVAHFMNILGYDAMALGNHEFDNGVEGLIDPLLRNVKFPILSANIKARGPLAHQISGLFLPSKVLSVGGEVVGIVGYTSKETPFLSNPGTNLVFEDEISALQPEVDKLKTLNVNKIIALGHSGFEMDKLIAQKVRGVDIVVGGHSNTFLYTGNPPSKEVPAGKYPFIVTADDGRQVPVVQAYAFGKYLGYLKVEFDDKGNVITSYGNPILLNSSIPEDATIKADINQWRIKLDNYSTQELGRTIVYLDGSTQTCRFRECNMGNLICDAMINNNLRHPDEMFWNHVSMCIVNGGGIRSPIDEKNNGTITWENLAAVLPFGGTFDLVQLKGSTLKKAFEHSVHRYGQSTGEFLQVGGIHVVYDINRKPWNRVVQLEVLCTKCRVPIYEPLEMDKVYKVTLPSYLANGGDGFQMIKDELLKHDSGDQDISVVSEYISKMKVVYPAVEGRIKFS

[7] = target: T2, recombinant human CD73-His …; experiment: ELISA, plate-coated recombinant human CD73
Description: 5 μg/ml of recombinant human CD73 protein (IPH, isoform E6) was coated on MaxiSorp ELISA plates (Nunc) in PBS, overnight at 4° C. Plates were washed 5 times in washing buffer (PBS, 0.05% Tween20) and unspecific sites were saturated by adding 200 μl/w TBS starting block buffer (Thermo Ficher). Dose-range of anti-CD73 antibodies were incubated for 2 h at 37° C. Plates were washed 5 times in washing buffer and HRP-coupled goat anti-human or goat anti-mouse IgG Fc fragment secondary antibody (Bethyl, 1/50000) was added for 1 hr at RT to detect bound anti-CD73 antibodies. […] The enzymatic reaction was stopped by adding HCl 1M and O.D. was measured at 450 nm. Optical density vs. anti-CD73 Ab concentration was plotted on graphs and EC50 is calculated using GraphPad Prism software.

[8] = target: T1, human CD73 expressed at the cell surface; experiment: cell-based or functional assay; remark: listed apart in the source
[9] = target: T1, human CD73 expressed at the cell surface; experiment: flow cytometry titration on MDA-MB-231 cells (endogenous CD73), median of fluorescence
Description: as §1
Median of fluorescence vs. antibodies concentration was plotted on graphs and EC50 is calculated using Graph Pad Prism program.

[10] = target: T1, human CD73 expressed at the cell surface; experiment: flow cytometry on MDA-MB-231 cells, medium (no APCP)
Description: as §1, §2

[11] = target: T1, human CD73 expressed at the cell surface; experiment: flow cytometry titration on a human-CD73-expressing recombinant host cell line, median of fluorescence
[12] = target: T1, human CD73 expressed at the cell surface; experiment: flow cytometry titration on HEK293T cells transfected with wild type human CD73, MFI PE
human CD73 mutant 3 = target: T5, human CD73 mutant 3 (human, UniProt P21589 27-549); experiment: flow cytometry titration on HEK293T cells transfected with human CD73 mutant 3, MFI PE
T5 construct: Transfected in HEK293T cells
T5 chain: T1 sequence with A73S, E103A, K107A, E108N, A109S

- EC50 for neutralization of the enzymatic activity of cellular CD73 (MDA-MB-231 cells, free phosphate from AMP) [1]: 0.319 µg/mL
- EC50 for CD73 blockade (enzymatic activity of soluble recombinant human CD73-his) [2]: 1.29 µg/mL
- EC50 (read off the curve) [3]: ~0.4 µg/mL
- EC50 [4]: 0.143 µg/mL
- decrease of the enzymatic activity of cellular CD73 (MDA-MB-231 cells) [5]: > 75%
- binding result [6]: no binding (tested: about 30 µg/ml)
- EC50 [7]: 0.009 µg/mL
- EC50 for neutralization of 5'-ectonucleotidase activity, mean over MDA-MB-231, H292 and A375 cells [8]: 0.21 µg/mL
- EC70 for neutralization of 5'-ectonucleotidase activity, mean over MDA-MB-231, H292 and A375 cells [8]: 0.46 µg/mL
- EC100 for neutralization of 5'-ectonucleotidase activity, mean over MDA-MB-231, H292 and A375 cells [8]: 0.72 µg/mL
- EC50 (read off the curve) [9]: ~0.1 µg/mL
- EC50 [10]: 0.0903 µg/mL
- EC50 (read off the curve) [11]: ~0.1 µg/mL
B1: antibody 8C7 (antibody, human IgG1, V domains shown)
VH: EVQLQQSGPELVKPGASVKVSCKASGYAFASYNMNWVKQSHGKSLDWIGYIDPYNGGSSYNLTFKGKATLTVDKSSTTAYMHLNSLTSEDSAVYYCARGYGNYKAWFAYWGQGTLVTVSA
VL: SIVMTPTPKFLLVSAGDRVTITCKASQSVSNDVAWYQQKPGQSPKLLIYYASTRYTGVPDRFTGSGYGTDFTFTISTVQAEDLAVYFCQQDYSSLTFGAGTKLELKR
notes: Produced as chimeric human IgG1 with heavy chain N297Q (Kabat EU numbering); RTVAAP)

- EC50 (read off the curve) [12]: ~0.2 µg/mL
- EC50 [4]: 0.0959 µg/mL
- EC50 (read off the curve) (human CD73 mutant 3): ~0.1 µg/mL
- EC50 [10]: 0.0629 µg/mL
B2: antibody AD2 (Biolegend, product ref. 344004) (antibody, V domains shown)
VH: EVQLQQSGAELVKPGASVKLSCTASGFNIKDTYIHWVKQRPEQGLEWIGRIDPATGNTEYDPKFQGKATITADTSSNTAYLHLSSLTSEDTAVYYCARGYYGSSYPPWFAYWGQGTLVTVS
VL: DIVMTQSHKFMSTSVGDRVSITCKASQDVGSAVAWYQQKPGQSPKLLIYWASTRHTGVPDRFTGSGSGTDFTLTISNVQSEDLADYFCQQYSSYPLTFGAGTKLELK
